Target: GST-PCAF (human, UniProt Q92831 1-832)
Test: pull-down

Sequence of GST-PCAF (Q92831 whole entry): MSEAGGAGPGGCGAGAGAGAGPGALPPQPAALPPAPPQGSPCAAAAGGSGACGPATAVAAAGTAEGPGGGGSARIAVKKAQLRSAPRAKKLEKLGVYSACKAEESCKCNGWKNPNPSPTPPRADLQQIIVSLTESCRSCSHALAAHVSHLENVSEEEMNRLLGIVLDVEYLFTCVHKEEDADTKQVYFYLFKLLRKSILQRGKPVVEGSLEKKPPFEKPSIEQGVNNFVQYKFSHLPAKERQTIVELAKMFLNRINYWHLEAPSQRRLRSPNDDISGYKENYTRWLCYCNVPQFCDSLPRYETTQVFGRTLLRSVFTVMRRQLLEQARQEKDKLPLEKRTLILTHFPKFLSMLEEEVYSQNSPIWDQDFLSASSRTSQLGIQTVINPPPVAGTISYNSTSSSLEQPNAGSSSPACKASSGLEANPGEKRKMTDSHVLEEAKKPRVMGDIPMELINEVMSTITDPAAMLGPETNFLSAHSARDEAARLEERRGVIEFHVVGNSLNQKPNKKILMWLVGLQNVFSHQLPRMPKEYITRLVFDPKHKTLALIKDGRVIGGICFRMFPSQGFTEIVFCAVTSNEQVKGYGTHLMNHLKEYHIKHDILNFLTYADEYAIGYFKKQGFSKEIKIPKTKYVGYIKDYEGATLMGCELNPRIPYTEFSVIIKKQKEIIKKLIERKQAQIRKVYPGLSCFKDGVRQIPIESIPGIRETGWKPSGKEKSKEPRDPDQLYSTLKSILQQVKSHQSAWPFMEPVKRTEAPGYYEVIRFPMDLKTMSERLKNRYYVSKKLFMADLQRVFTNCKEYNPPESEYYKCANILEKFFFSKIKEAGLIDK

binding result: binds
B1: His-HMGA2 (natural protein)
chain: MSARGEGAGQPSTSAQGQPAAPAPQKRGRGRPRKQQQEPTGEPSPKRPRGRPKGSKNKSPSKAAQKKAEATGEKRPRGRPRKWPQQVVQKKPAQEETEETSSQESAEED
